Experimental data from paper PMC6783550, “Molecular mechanism of azoxy bond formation for azoxymycins biosynthesis” (Nature Communications, 2019).

Key:
Nc1ccc(/C=C/C(=O)O)cc1 = experiment: purified protein; details: 30 °C, general assay: 1 mM NADH, 10 μM PMS, O2, 20 mM HEPES pH 7
[1] = target: AzoC (Streptomyces chattanoogensis); experiment: native gel or EMSA + SEC; Native-PAGE and size-exclusion chromatography of purified recombinant AzoC; SEC on Sephacryl S-300, AKTA Purifier, 4 °C, 20 mM Tris pH 8.0, 250 mM NaCl, 1 mL/min, markers IgG (150 kDa) and BSA (67 kDa); self-association, homodimer

stoichiometry N [1] | Substance | Km (Nc1ccc(/C=C/C(=O)O)cc1) [µM] | kcat (Nc1ccc(/C=C/C(=O)O)cc1) [s⁻¹]
 | AzoC (Streptomyces chattanoogensis) | 4.24 ± 0.9 | 0.7005 ± 0.0698
2 | AzoC (enzyme) |  | 
